Measured values published in patent US20250230251A1 (Bristol-Myers Squibb, published 2025).

T1: human IL-18Rβ on cells (human, UniProt O95256 20-599)
T1 sequence: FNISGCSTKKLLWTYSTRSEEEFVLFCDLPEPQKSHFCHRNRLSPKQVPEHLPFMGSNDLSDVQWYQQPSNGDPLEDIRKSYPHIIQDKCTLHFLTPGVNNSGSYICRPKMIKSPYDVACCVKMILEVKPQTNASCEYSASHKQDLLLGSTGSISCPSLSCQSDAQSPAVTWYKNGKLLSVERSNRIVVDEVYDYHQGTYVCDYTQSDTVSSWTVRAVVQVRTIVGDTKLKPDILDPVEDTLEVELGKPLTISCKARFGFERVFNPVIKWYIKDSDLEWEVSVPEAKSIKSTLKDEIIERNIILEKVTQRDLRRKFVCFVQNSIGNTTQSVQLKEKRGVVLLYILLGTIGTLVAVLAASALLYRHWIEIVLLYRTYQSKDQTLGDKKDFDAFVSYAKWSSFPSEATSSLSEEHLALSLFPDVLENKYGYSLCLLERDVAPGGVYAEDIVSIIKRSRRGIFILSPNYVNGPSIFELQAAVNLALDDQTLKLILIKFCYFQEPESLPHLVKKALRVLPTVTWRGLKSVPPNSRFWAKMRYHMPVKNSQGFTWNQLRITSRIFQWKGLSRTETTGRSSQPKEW

T2: huIL-18Rβ-HisAvi (human, UniProt O95256 20-356, biotinylated in the Octet blocking assay)
T2 construct: Soluble analyte in all SPR runs; captured on streptavidin sensors in the Octet assay; also called human IL-18Rβ; human IL-18Rβ-Avi-His
T2 sequence: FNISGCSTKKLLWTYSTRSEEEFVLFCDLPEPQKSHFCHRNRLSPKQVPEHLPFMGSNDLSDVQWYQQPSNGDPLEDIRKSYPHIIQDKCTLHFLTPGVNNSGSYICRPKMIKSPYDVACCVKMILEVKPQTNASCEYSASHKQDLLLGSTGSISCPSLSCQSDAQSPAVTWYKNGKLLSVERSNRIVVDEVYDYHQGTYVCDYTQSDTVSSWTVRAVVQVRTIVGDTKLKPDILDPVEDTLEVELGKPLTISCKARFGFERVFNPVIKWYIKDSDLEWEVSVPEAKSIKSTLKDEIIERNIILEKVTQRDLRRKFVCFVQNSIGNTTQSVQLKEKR

T3: cyIL-18Rβ-HisAvi (cynomolgus monkey)
T3 construct: Soluble analyte in SPR; also called cyno IL-18Rβ; cynomolgus monkey IL-18Rβ
T3 chain: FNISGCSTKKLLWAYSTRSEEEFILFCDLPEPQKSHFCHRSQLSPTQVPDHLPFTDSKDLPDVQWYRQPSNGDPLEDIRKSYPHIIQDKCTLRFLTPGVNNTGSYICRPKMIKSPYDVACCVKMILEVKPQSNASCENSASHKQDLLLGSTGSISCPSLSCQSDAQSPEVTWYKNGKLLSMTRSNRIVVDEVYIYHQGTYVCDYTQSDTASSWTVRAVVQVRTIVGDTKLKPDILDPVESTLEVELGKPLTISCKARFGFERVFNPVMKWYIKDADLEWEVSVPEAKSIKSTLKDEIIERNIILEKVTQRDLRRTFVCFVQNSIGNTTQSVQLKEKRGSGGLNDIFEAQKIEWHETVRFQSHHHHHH


What was measured:
[1] = target: T1, human IL-18Rβ on cells; test: cell-based or functional assay
[2] = target: T2, huIL-18Rβ-HisAvi; test: SPR T200, mAb on anti-hFc, 37C, pH 6
[3] = target: T3, cyIL-18Rβ-HisAvi; test: SPR T200, mAb on anti-hFc, 37C, pH 6
[4] = target: T2, huIL-18Rβ-HisAvi; test: SPR T200, mAb on anti-hFc, 37C, pH 7.4
[5] = target: T3, cyIL-18Rβ-HisAvi; test: SPR T200, mAb on anti-hFc, 37C, pH 7.4
[6] = target: T1, human IL-18Rβ on cells; test: cell-based or functional assay; remark: listed apart in the source
[7] = target: T2, huIL-18Rβ-HisAvi; test: SPR T200, mAb on anti-hFc, 37C, pH 6; remark: listed apart in the source
[8] = target: T3, cyIL-18Rβ-HisAvi; test: SPR T200, mAb on anti-hFc, 37C, pH 6
[9] = target: T2, huIL-18Rβ-HisAvi; test: SPR T200, mAb on anti-hFc, 37C, pH 7.4; remark: listed apart in the source
[10] = target: T3, cyIL-18Rβ-HisAvi; test: SPR T200, mAb on anti-hFc, 37C, pH 7.4

Kd [2]	koff [2]	kon [2]	Kd [3]	koff [3]	kon [3]	Kd [4]	koff [4]	kon [4]	Kd [5]	koff [5]	kon [5]	IC50, LPS+IL-12 dependent IFNg production, human whole blood [6]	Kd [7]	koff [7]	kon [7]	Kd [9]	koff [9]	kon [9]	Binder	also measured
0.29 nM	0.00013 s⁻¹	440000 M⁻¹ s⁻¹	1.4 nM	0.00023 s⁻¹	160000 M⁻¹ s⁻¹	0.24 nM	8.9e-05 s⁻¹	360000 M⁻¹ s⁻¹	0.92 nM	0.00016 s⁻¹	180000 M⁻¹ s⁻¹	–	–	–	–	–	–	–	P20-V2 (antibody, human IgG1, kappa, V domains shown, Variant of P20) VH: QVQLQESGPGLVKPSETLSLTCTVSGGSINNYYWSWIRQPPGKGLEWIGYIFYSGTTNYNPSLKSRVTISVDTSKNQFSLKLSSVTAADTAVYYCARDVGIAARNSYYYVMDVWGQGTTVTVSS VL: AIQLTQSPSSLSASVGDRVTITCRASQGISSALAWYQQKPGKAPKFLIYEGSSLESGVPSRFSGSGSGTDFTLTISSLQPEDFATYYCQQFNSYPITFGQGTRLEIKR	Average IC50, LPS+IL-12 dependent IFNg production, human whole blood [1]: 0.37 nM
0.13 nM	6.8e-05 s⁻¹	520000 M⁻¹ s⁻¹	0.61 nM	0.00015 s⁻¹	250000 M⁻¹ s⁻¹	1 nM	0.00022 s⁻¹	210000 M⁻¹ s⁻¹	2.9 nM	0.00032 s⁻¹	110000 M⁻¹ s⁻¹	0.85 nM	0.13 nM	6.8e-05 s⁻¹	520000 M⁻¹ s⁻¹	1 nM	0.00022 s⁻¹	210000 M⁻¹ s⁻¹	P20-V6 (antibody, human IgG1, kappa, name in Kabat numbering, built from the chains of the parent P20 with the printed mutation) heavy: QVQLQESGPGLVKPSETLSLTCTVSGGSINNYYWSWIRQPPGKGLEWIGYIFYSGTTNYNPSLKSRVTISVDTSKNQFSLKLSSVTAADTAVYYCARDVGIAARNSYYYVMDVWGQGTTVTVSSASTKGPSVFPLAPSSKSTSGGTAALGCLVKDYFPEPVTVSWNSGALTSGVHTFPAVLQSSGLYSLSSVVTVPSSSLGTQTYICNVNHKPSNTKVDKRVEPKSCDKTHTCPPCPAPEAEGAPSVFLFPPKPKDTLMISRTPEVTCVVVDVSHEDPEVKFNWYVDGVEVHNAKTKPREEQYNSTYRVVSVLTVLHQDWLNGKEYKCKVSNKALPAPIEKTISKAKGQPREPQVYTLPPSREEMTKNQVSLTCLVKGFYPSDIAVEWESNGQPENNYKTTPPVLDSDGSFFLYSKLTVDKSRWQQGNVFSCSVMHEALHNHYTQKSLSLSPG light: AIQLTQSPSSLSASVGDRVTITCRASQGISSALAWYQQKPGKAPKFLIYDASSLESGVPSRFSGSGSGTDFTLTISSLQPEDFATYYCQQFNSYPITFGQGTRLEIKRTVAAPSVFIFPPSDEQLKSGTASVVCLLNNFYPREAKVQWKVDNALQSGNSQESVTEQDSKDSTYSLSSTLTLSKADYEKHKVYACEVTHQGLSSPVTKSFNRGEC	Kd [8]: 0.61 nM; koff [8]: 0.00015 s⁻¹; kon [8]: 250000 M⁻¹ s⁻¹; Kd [10]: 2.9 nM; koff [10]: 0.00032 s⁻¹; kon [10]: 110000 M⁻¹ s⁻¹
–	–	–	–	–	–	–	–	–	–	–	–	0.87 nM	0.18 nM	0.00028 s⁻¹	1.6e+06 M⁻¹ s⁻¹	0.73 nM	0.00049 s⁻¹	680000 M⁻¹ s⁻¹	P8-V2 (antibody, human IgG1, kappa, name in Kabat numbering, built from the chains of the parent P8 with the printed mutations) heavy: QVQLVQSGAEVKKPGASVKVSCKASGYTFTSYYMHWVRQAPGQGLEWMGIINPRGGYTTYAQKFQGRVTMTRDTSTSTVYMELSSLRSEDTAVYYCAKEGRVSPTDYYGMDVWGQGTTVTVSSASTKGPSVFPLAPSSKSTSGGTAALGCLVKDYFPEPVTVSWNSGALTSGVHTFPAVLQSSGLYSLSSVVTVPSSSLGTQTYICNVNHKPSNTKVDKRVEPKSCDKTHTCPPCPAPEAEGAPSVFLFPPKPKDTLMISRTPEVTCVVVDVSHEDPEVKFNWYVDGVEVHNAKTKPREEQYNSTYRVVSVLTVLHQDWLNGKEYKCKVSNKALPAPIEKTISKAKGQPREPQVYTLPPSREEMTKNQVSLTCLVKGFYPSDIAVEWESNGQPENNYKTTPPVLDSDGSFFLYSKLTVDKSRWQQGNVFSCSVMHEALHNHYTQKSLSLSPG light: not shown	–
